# Measured values published in article PMC7278358, “Kinetic parameters of human aspartate/asparagine–β-hydroxylase suggest that it has a possible function in oxygen sensing” (The Journal of Biological Chemistry, 2020).
# Several values for one entry are separate records, joined by “and”; a condition that tells them apart may be missing. Equal values may be shown once. Read-outs that look alike come from different tables or passages of the source. Positions of bridges follow the written chain, without caps; N, C: chain ends. Non-standard residues stand in square brackets, D forms with d. No end group written: not given here.
# T1: human His6–AspH315–758 (Homo sapiens, UniProt Q12797)
# T1 construct: a pET-28a(+) vector encoding for N-terminal His6-tagged AspH315–758 (His6–AspH315–758) was transformed into Escherichia coli BL21 (DE3) cells; made in house; host or cells: Escherichia coli BL21 (DE3)
# T1 sequence (Q12797 315-758): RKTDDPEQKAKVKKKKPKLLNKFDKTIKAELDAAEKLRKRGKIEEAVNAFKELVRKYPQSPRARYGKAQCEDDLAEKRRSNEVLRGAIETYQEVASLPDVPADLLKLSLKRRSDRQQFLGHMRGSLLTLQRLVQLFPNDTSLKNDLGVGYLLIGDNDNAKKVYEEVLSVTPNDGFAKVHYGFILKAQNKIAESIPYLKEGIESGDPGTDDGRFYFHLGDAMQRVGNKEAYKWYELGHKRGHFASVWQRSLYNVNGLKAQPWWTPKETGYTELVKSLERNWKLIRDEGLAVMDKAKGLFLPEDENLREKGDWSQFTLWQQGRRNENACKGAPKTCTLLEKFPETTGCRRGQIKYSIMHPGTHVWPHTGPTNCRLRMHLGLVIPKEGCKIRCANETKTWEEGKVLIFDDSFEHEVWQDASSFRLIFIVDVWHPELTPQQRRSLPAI
# T2: His6–AspH_(315–758) (human) (UniProt Q12797)
# T2 sequence: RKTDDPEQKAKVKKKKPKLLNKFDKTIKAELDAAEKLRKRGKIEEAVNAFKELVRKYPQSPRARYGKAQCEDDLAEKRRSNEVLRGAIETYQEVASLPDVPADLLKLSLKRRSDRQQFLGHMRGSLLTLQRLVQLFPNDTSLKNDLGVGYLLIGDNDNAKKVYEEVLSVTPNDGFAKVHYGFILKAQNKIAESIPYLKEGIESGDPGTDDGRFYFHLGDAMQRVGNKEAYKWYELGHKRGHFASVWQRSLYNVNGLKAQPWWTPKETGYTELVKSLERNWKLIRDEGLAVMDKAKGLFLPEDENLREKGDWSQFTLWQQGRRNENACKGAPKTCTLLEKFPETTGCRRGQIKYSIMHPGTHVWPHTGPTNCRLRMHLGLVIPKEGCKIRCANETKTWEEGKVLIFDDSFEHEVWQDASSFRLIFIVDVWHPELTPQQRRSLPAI
# What was measured:
# human His6–AspH315–758 [1] = molecular target: T1, human His6–AspH315–758; assay: AspH steady-state kinetics from initial hydroxylation rates (SPE-MS, Michaelis–Menten); type: biochemical
# Method: (§1) The reactions were monitored with a rate of 1 sample/25 s using the same SPE-MS configuration as described above. The data were analyzed as described above, and the slopes of the initial reaction rates (Fig. S6) were fitted to a Michaelis-Menten plot using nonlinear regression (GraphPad Prism 5). […] The reactions were monitored by SPE-MS with a rate of 1 sample/25 s using identical configurations as before. The data were analyzed as described, and the slopes of the initial reaction rates (Fig. […] The Morrison equation is as follows, where I is the inhibitor concentration, Ki is the dissociation constant of the inhibitor, ET is the total concentration of active enzyme, and vi/v0 is the fractional enzyme activity ([94]).
# [2] = test system: human 2OG oxygenases, including the PHDs and FIH; details: read-out: 2OG Km app, most other human 2OG oxygenases; cited from earlier work
# bovine AspH = test system: bovine AspH; parameters: method as in PMID 2187868; details: cited from earlier work
# [3] = molecular target: T2, His6–AspH_(315–758) (human)
# [4] = molecular target: T2, His6–AspH_(315–758) (human); remark: listed apart in the source
# human His6–AspH315–758 [5] = molecular target: T1, human His6–AspH315–758; assay: AspH activity assay: SPE-MS time course of peptide hydroxylation; type: biochemical; details: 0.1 μM His6–AspH315–758, 2.0 μM peptide, 100 μM LAA, 10 μM FAS, 10 μM 2OG, 50 mM HEPES pH 7.5, 20 °C
# Method: The substrate mixture (1.0 ml) containing 2.4 μM peptide, 120 μM LAA, 12 μM FAS, and 12 μM 2OG in 50 mM HEPES buffer (pH 7.5) was added into a well of a 2-ml volume 96-well assay plate (Greiner) at 20 °C under an ambient atmosphere. A blank sample was analyzed using a RapidFire RF 360 high-throughput sampling robot (Agilent) attached to an Agilent 6530 accurate mass quadrupole TOF mass spectrometer operated in the positive ionization mode. The enzyme mixture (0.2 ml), containing 0.6 μM His6–AspH315–758 in 50 mM HEPES buffer (pH 7.5), was then added to the well and thoroughly mixed. The RapidFire sampling robot was programmed to analyze 1 sample/min. The following SPE-MS conditions were used: assay samples were aspirated under vacuum for 0.4 s and loaded onto a C4 SPE cartridge. After loading, the C4 SPE cartridge was washed with 0.1% (v/v) aqueous formic acid to remove nonvolatile buffer salts (5 s, 1.5 ml/min). The peptide was then eluted from the SPE cartridge with 0.1% (v/v) aqueous formic acid in 85/15 (v/v) acetonitrile/water into the mass spectrometer (5 s, 1.25 ml/min). The SPE cartridge was re-equilibrated with 0.1% (v/v) aqueous formic acid (1 s, 1.25 ml/min). The mass spectrometer parameters were capillary voltage (3500 V), fragmentor voltage (150 V), gas temperature (350 °C), gas flow (12 liters/min). The m/z + 2 charge states of the substrate peptide and the product (hydroxylated) peptide were used to extract ion chromatogram data; peak areas were integrated using RapidFire Integrator software (Agilent). The data were exported into Microsoft Excel and used to calculate the percentage of conversion of the hydroxylation reaction using the equation: % conversion = 100 × (integral product peptide)/(integral substrate peptide + integral product peptide).
# [6] = substrate: O=C1O[C@H]([C@@H](O)CO)C(O)=C1O; assay: AspH steady-state kinetics from initial hydroxylation rates (SPE-MS, Michaelis–Menten); type: biochemical, human; details: other: LAA varied; 50 μM FAS, 50 μM 2OG; hFX–CP101–119 substrate; n = 3; pH 7.5; 20.0 °C
# Method: as §1
# [7] = 2OG varied, 50 μM FAS, hFX–CP101–119 substrate, n = 3
# [8] = Fe(II) varied, in the absence of LAA, 50 μM 2OG, hFX–CP101–119 substrate, n = 3
# [9] = Fe(II) varied, in the presence of LAA (100 μM), 50 μM 2OG, hFX–CP101–119 substrate, n = 3
molecule,measurement,setting,value
"O=C(O)CCC(=O)C(=O)O [2OG, 2-oxoglutarate]",kcat,human His6–AspH315–758 [1]; [7],0.19 ± 0.03 s⁻¹
same,kcat/Km,human His6–AspH315–758 [1]; [7],320000 ± 70000 M⁻¹ s⁻¹
same,vmax app,"human His6–AspH315–758 [1]; 2OG varied, 50 μM FAS, monitoring hydroxylation of hFX–CP101–119, pH 7.5, 20 °C, n = 3",0.0168 ± 0.0005 µM/s
same,Km,"human His6–AspH315–758 [1]; 2OG varied, 50 μM FAS, monitoring hydroxylation of hFX–CP101–119, pH 7.5, 20 °C, n = 3, read-out: Km app",~0.6 µM and 0.6 µM
same,Km,[2],1 to 25 µM
same,Km,bovine AspH; read-out: 2OG Km app,~5 µM
ammonium iron(II) sulfate hexahydrate [Fe(II)],vmax app,"human His6–AspH315–758 [1]; Fe(II) (FAS) varied, in the absence of LAA, 50 μM 2OG, monitoring hydroxylation of hFX–CP101–119, pH 7.5, 20 °C, n = 3",0.0168 ± 0.0004 µM/s
same,Km,"human His6–AspH315–758 [1]; Fe(II) (FAS) varied, in the absence of LAA, 50 μM 2OG, monitoring hydroxylation of hFX–CP101–119, pH 7.5, 20 °C, n = 3, read-out: Km app",4.76 ± 0.48 µM
same,vmax app,"human His6–AspH315–758 [1]; Fe(II) (FAS) varied, in the presence of LAA (100 μM), 50 μM 2OG, monitoring hydroxylation of hFX–CP101–119, pH 7.5, 20 °C, n = 3",0.0171 ± 0.0005 µM/s
same,Km,"human His6–AspH315–758 [1]; Fe(II) (FAS) varied, in the presence of LAA (100 μM), 50 μM 2OG, monitoring hydroxylation of hFX–CP101–119, pH 7.5, 20 °C, n = 3, read-out: Km app",1.42 ± 0.16 µM
same,kcat,human His6–AspH315–758 [1]; [8],0.19 ± 0.03 s⁻¹
same,kcat/Km,human His6–AspH315–758 [1]; [8],40000 ± 10000 M⁻¹ s⁻¹
same,kcat,human His6–AspH315–758 [1]; [9],0.19 ± 0.03 s⁻¹
same,kcat/Km,human His6–AspH315–758 [1]; [9],130000 ± 30000 M⁻¹ s⁻¹
same,Km,bovine AspH; read-out: Km app for Fe(II),3 µM
hC1r–CP_(165–183) (from UniProt P00736 165-183) (peptide),"Km of AspH for the peptide substrate (steady-state kinetics of peptide hydroxylation, SPE-MS, 50 mM HEPES pH 7.5, 20 °C)",[3],3 μM
hC1s–CP_(147–165) (from UniProt P09871 147-165) (peptide),"Km of AspH for the peptide substrate (steady-state kinetics of peptide hydroxylation, SPE-MS, 50 mM HEPES pH 7.5, 20 °C)",[3],36.5 μM
hFXII–CP_(110–128) (from UniProt P00748 110-128) (peptide),"hydroxylation of the peptide by AspH (SPE-MS), t = 15 min to 200 min",[4],< 1%
"hFX–CP101–119: thioether-linked cyclic peptide of hFX amino acids 101–119, Cys110 thiol linked to N-terminal chloroacetyl group, C-terminal amide ({CH2CO}-[dA]KDGLGEYTCTSLEGFEGK-NH2; thioether N-10; SMILES CC(C)C[C@@H]1NC(=O)CNC(=O)[C@H](CC(=O)O)NC(=O)[C@H](CCCCN)NC(=O)[C@@H](C)NC(=O)CSC[C@@H](C(=O)N[C@H](C(=O)N[C@@H](CO)C(=O)N[C@@H](CC(C)C)C(=O)N[C@@H](CCC(=O)O)C(=O)NCC(=O)N[C@@H](Cc2ccccc2)C(=O)N[C@@H](CCC(=O)O)C(=O)NCC(=O)N[C@@H](CCCCN)C(N)=O)[C@@H](C)O)NC(=O)[C@H]([C@@H](C)O)NC(=O)[C@H](Cc2ccc(O)cc2)NC(=O)[C@H](CCC(=O)O)NC(=O)CNC1=O)",time to complete hydroxylation,human His6–AspH315–758 [5]; SPE-MS,7 min
same,Hydroxylation t = 15 min,human His6–AspH315–758 [5]; % conversion by SPE-MS,>95%
same,Hydroxylation t = 200 min,human His6–AspH315–758 [5]; % conversion by SPE-MS,>95%
same,Hydroxylation t = 15 min,"human His6–AspH315–758 [5]; % conversion by SPE-MS, listed as hFX-CP101-119",> 95%
same,vmax,"human His6–AspH315–758 [1]; peptide as varied substrate, 0.1 μM His6–AspH315–758, 100 μM LAA, 20 μM FAS, 20 μM 2OG, 50 mM HEPES pH 7.5, 20 °C, SPE-MS, mean ± S.D., n = 3",0.0178 ± 0.0013 µM/s
same,Km,"human His6–AspH315–758 [1]; peptide as varied substrate, 0.1 μM His6–AspH315–758, 100 μM LAA, 20 μM FAS, 20 μM 2OG, 50 mM HEPES pH 7.5, 20 °C, SPE-MS, mean ± S.D., n = 3, read-out: Km",1.19 ± 0.26 µM
same,kcat/Km,"human His6–AspH315–758 [1]; peptide as varied substrate, 100 μM LAA, 20 μM FAS, 20 μM 2OG, pH 7.5, 20 °C, mean ± S.D., n = 3",170000 ± 50000 M⁻¹ s⁻¹
same,kcat,"human His6–AspH315–758 [1]; peptide as varied substrate, based on active enzyme 90.8 nM (2,4-PDCA titration), 100 μM LAA, 20 μM FAS, 20 μM 2OG, pH 7.5, 20 °C, mean ± S.D., n = 3",0.20 ± 0.03 s⁻¹
same,substrate/product inhibition of AspH activity,human His6–AspH315–758 [1]; up to 16 μM hFX–CP101–119,neither hFX–CP101–119 nor its hydroxylated product inhibited AspH activity
hFX–CP_(101–119) (from UniProt P00742 101-119) (peptide),"Km of AspH for the peptide substrate (steady-state kinetics of peptide hydroxylation, SPE-MS, 50 mM HEPES pH 7.5, 20 °C)",[3],1.19 μM
"hFX–EGFD1_86–124: EGFD1 (amino acids 86–124) of human coagulation factor X (DGDQCETSPCQNQGKCKDGLGEYTCTCLEGFEGKNCELF-NH2; also: mixture of canonical and noncanonical disulfide isomers; UniProt P00742 86-124, looked up, fragment)",conversion at which hydroxylation slowed (consumption of the noncanonical disulfide isomer),human His6–AspH315–758 [5]; after 5 min,~45%
hProC–CP_(111–129) (from UniProt P04070 111-129) (peptide),"Km of AspH for the peptide substrate (steady-state kinetics of peptide hydroxylation, SPE-MS, 50 mM HEPES pH 7.5, 20 °C)",[3],1.71 μM
"human His6–AspH315–758 (Homo sapiens) (protein, a pET-28a(+) vector encoding for N-terminal His6-tagged AspH315–758 (His6–AspH315–758) was transformed into Escherichia coli BL21 (DE3) cells; made in house; host or cells: Escherichia coli BL21 (DE3)) RKTDDPEQKAKVKKKKPKLLNKFDKTIKAELDAAEKLRKRGKIEEAVNAFKELVRKYPQSPRARYGKAQCEDDLAEKRRSNEVLRGAIETYQEVASLPDVPADLLKLSLKRRSDRQQFLGHMRGSLLTLQRLVQLFPNDTSLKNDLGVGYLLIGDNDNAKKVYEEVLSVTPNDGFAKVHYGFILKAQNKIAESIPYLKEGIESGDPGTDDGRFYFHLGDAMQRVGNKEAYKWYELGHKRGHFASVWQRSLYNVNGLKAQPWWTPKETGYTELVKSLERNWKLIRDEGLAVMDKAKGLFLPEDENLREKGDWSQFTLWQQGRRNENACKGAPKTCTLLEKFPETTGCRRGQIKYSIMHPGTHVWPHTGPTNCRLRMHLGLVIPKEGCKIRCANETKTWEEGKVLIFDDSFEHEVWQDASSFRLIFIVDVWHPELTPQQRRSLPAI",kcat,[6],0.16 ± 0.03 s⁻¹
